Experimental data from IntAct's records for PubMed 29039417.

B1: Isoform 2 of Bardet-Biedl syndrome 7 protein (Homo sapiens), Q8IWZ6-2 (parent)
chain: MDLILNRMDYLQVGVTSQKTMKLIPASRHRATQKVVIGDHDGVVMCFGMKKGEAAAVFKTLPGPKIARLELGGVINTPQEKIFIAAASEIRGFTKRGKQFLSFETNLTESIKAMHISGSDLFLSASYIYNHYCDCKDQHYYLSGDKINDVICLPVERLSRITPVLACQDRVLRVLQGSDVMYAVEVPGPPTVLALHNGNGGDSGEDLLFGTSDGKLALIQITTSKPVRKWEIQNEKKRGGILCIDSFDIVGDGVKDLLVGRDDGMVEVYSFDNANEPVLRFDQMLSESVTSIQGGCVGKDSYDEIVVSTYSGWVTGLTTEPIHKESGPGEELKINQEMQNKISSLRNELEHLQYKVLQERENYQQSSQSSKAKSAVPSFGINDKFTLNKDDASYSLILEVQTAIDNVLIQSDVPIDLLDVDKNSAVVSFSSCDSESNDNFLLATYRCQADTTRLELKIRSIEGQYGTLQAYVTPRIQPKTCQVRQYHIKPLSLHQRTHFIDHDRPMNTLTLTGQFSFAEVHSWVVFCLPEVPEKPPAGECVTFYFQNTFLDTQLESTYRKGEGVFKSDNISTISILKDVLSKEATKRKINLNISYEINEVSVKHTLKLIHPKLEYQLLLAKKVQLIDALKELQIHEGNTNFLIPEYHCILEEADHLQEEYKKQPAHLERLYG
partner: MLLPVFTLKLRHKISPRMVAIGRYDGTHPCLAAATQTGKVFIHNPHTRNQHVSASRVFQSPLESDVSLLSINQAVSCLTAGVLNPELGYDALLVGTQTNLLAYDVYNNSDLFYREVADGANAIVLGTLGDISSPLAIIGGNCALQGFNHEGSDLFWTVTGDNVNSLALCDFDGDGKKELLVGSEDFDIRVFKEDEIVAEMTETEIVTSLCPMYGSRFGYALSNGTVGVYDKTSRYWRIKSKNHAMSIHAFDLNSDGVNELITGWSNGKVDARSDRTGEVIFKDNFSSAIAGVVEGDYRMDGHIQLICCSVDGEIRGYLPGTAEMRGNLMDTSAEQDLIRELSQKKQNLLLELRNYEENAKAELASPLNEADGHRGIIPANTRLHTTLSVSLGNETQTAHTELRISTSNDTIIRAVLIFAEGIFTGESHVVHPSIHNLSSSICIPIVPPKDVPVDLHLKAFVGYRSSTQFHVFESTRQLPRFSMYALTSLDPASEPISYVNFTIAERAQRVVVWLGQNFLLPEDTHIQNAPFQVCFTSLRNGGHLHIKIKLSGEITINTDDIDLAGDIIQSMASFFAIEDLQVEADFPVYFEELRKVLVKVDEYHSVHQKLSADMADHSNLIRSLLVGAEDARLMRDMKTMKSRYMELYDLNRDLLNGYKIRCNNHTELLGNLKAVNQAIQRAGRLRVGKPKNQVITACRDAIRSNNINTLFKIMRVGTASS

Variants of: B1
Details: with bbs2_human BBS2, Q9BXC9

Effect of a mutation on the interaction, with no effect:
T572A
T572E
T572K
I573A
I573E
I573K
S574A
S574E
S574K
I575A
I575E
I575K
L576A
L576E
L576K
K577A
K577E
D578A
D578E
D578K
V579A
V579E
V579K
L580A
L580E
L580K
S581A
S581E
S581K
K582A
K582E
E583A
E583K
A584E
A584K
T585A
T585E
T585K
K586A
K586E
R587A
R587E
R587K
K588A
K588E
I589A
I589E
I589K
N590A
N590E
N590K
L591A
L591E
L591K
N592A
N592E
N592K
I593A
I593E
I593K
S594A
S594E
S594K
Y595A
Y595E
Y595K
E596A
E596K
I597A
I597E
I597K
N598A
N598E
N598K
E599A
E599K
V600A
V600E
V600K
S601A
S601E
S601K
V602A
V602E
V602K
K603A
K603E
H604A
H604E
H604K
T605A
T605E
T605K
